Square brackets hold non-standard residues; d marks the D form. Ends that are not written are not given here. pT = C[C@@H](OP(=O)(O)O)[C@H](N)C(=O)O
T1: AF9 ANC1 Homology Domain (AHD), residues 490-568 (UniProt P42568 490-568)
T1 sequence (looked up): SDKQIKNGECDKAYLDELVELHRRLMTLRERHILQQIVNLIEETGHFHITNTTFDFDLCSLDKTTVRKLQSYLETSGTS

T2: AF4 peptide phosphorylated at T766
T2 chain: LMVKI[pT]LDLLSRIP


Legend:
[1] = molecular target: T1, AF9 ANC1 Homology Domain (AHD), …; test: NMR titration
[2] = molecular target: AF4 peptide of the fluorescence anisotropy experiments; test: fluorescence polarisation
[3] = molecular target: BCoR peptide of the fluorescence anisotropy experiments; test: fluorescence polarisation
[4] = molecular target: T2, AF4 peptide phosphorylated at T766; test: fluorescence polarisation

Row | Binder | binding result [1] | Kd [2] [nM] | Kd [3] [nM] | fold reduction of affinity against the unphosphorylated AF4 peptide [4] [fold]
1 | LMVKITLDLLSRIP (peptide, UniProt P51825 761-774, looked up) [AF4 peptide, residues 761-774 (AF9 interaction motif of AF4)] | binds | – | – | –
2 | MBP-AF9 (mouse AF9 residues 475-568 fused to the Maltose Binding Protein) (domain or fragment, UniProt A2AM29 475-568, looked up) NNNQILEVKSPIKQSKSDKQIKNGECDKAYLDELVELHRRLMTLRERHILQQIVNLIEETGHFHITNTTFDFDLCSLDKTTVRKLQSYLETSGT | – | 0.17 | 32 | ~30
